Target: T1, IL-17RB-3-Fc fusion protein (human)
T1 construct: Used as 5x concentrated conditioned medium; also called huIL-17RB-3 like-Fc; HIL17RB-3-Fc
Assay: restates the competition assay of Example 8
Method: The conditioned media from 293E cells transfected to express IL-17E-Fc fusion protein (SEQ ID NO: 23), prepared as described in Example 7 above, was collected, concentrated and used for the binding assay. Specificity of ligand binding was determined by competition with soluble blocking receptors, either IL-17RB-2-Fc or IL-17RB-3-Fc fusion proteins (SEQ ID NOS: 22 or 23, respectively). IL-17R-Fc fusion protein (consisting of the extracellular domain of SEQ ID NO: 3) was purified from conditioned media collected from transfected 293E cells and used as a control. Conditioned media from 293E cells transfected with IL-17RB-2-Fc or IL-17-RB-3-Fc (deposited with the ATCC on Mar. 14, 2001 under Accession Nos. and respectively), as described in Example 6 above, was concentrated (5×) with an Amicon 3Kd cut-off Centracon (#4203) and used for blocking.
Prior to the binding assay, 0.5 ml of IL-17E-Fc fusion protein containing (1×) conditioned media was added into vials each containing 0.5 ml 5× conditioned media of IL-17RB-2-Fc, IL-17RB-3-Fc, or 0.5 ml of 5 μg/ml IL-17R-Fc protein in RPMI 1640. Each vial was incubated on ice for 2 hours.
Subsequently, GM3104A cells (1×10⁶ cells per sample) were incubated with 1 ml of 8% FBS/PBS, at 4° C. for 1 hour. […]

B1: recombinant human IL-17E-Fc fusion protein (Fc fusion)
chain: YSHWPSCCPSKGQDTSEELLRWSTVPVPPLEPARPNRHPESCRASEDGPLNSRAISPWRYELDRDLNRLPQDLYHARCLCPHCVSLQTGSHMDPRGNSELLYHNQTVFYRRPCHGEKGTHKGYCLERRLYRVSLACVCVRPRVMGEPKSADKTHTCPPCPAPELLGGPSVFLFPPKPKDTLMISRTPEVTCVVVDVSHEDPEVKFNWYVDGVEVHNAKTKPREEQYNSTYRVVSVLTVLHQDWLNGKEYKCKVSNKALPAPIEKTISKAKGQPREPQVYTLPPSRDELTKNQVSLTCLVKGFYPSDDIAVEWESNGQPENNYKTTPPVLDSDGSFFLYSKLTVDKSRWQQGNVFSCSVMHEALHNHYTQKSLSLSPGK
notes: Used as conditioned medium of transfected 293E cells; also called IL-17 like-Fc; rhIL-17 like-Fc
Question: Does B1 bind?
Answer: binds

Source: patent publication US20050234221A1 (Amgen, published 2005)
